Measured values reported in patent US11371056B2, “HPPD variants and methods of use” (BASF Agricultural Solutions Seed US LLC, priority 2017, dated 2022).
Where a chain is given by its changes, count along the chain named.

B1: SEQ ID NO:46 (protein)
chain: MADLYENPMGLMGFEFIEFASPTPGTLEPIFEIMGFTKVATHRSKNVHLYRQGEINLILNNEPNSIASYFAAEHGPSVCGMAFRVKDSQKAYNRALELGAQPIHIDTGPMELNLPAIKGIGGAPLYLIDRFGEGSSIYDIDFVYLEGVERNPVGAGLKVIDHLTHNVYRGRMVYWANFYEKLFNFREARYFDIKGEYTGLTSKAMSAPDGMIKIPLNEESSKGAGQIEEFLMQFNGEGIQHVAFLTDDLVKTWDALKKIGMRFMTAPGDEYYEMLEGRLPDHGEPVDQLQARGILLDGSSVEGDKRLLLQIFSEKLMGPVFFEFIQRKGDDGFGPDSFKVLFESIERDQVRRGVLTAD
modifications: mutant HPPD polypeptide
B2: SEQ ID NO:47 (protein)
chain: B1 chain with K315R
modifications: mutant HPPD polypeptide
B3: SEQ ID NO:48 (protein)
chain: B1 chain with K315T
modifications: mutant HPPD polypeptide
B4: SEQ ID NO:49 (protein)
chain: B1 chain with K315Q, D336H
modifications: mutant HPPD polypeptide
B5: SEQ ID NO:50 (protein)
chain: B1 chain with K315T, D336H
modifications: mutant HPPD polypeptide
B6: SEQ ID NO:51 (protein)
chain: B1 chain with K213R, P215A, K315Q, D336H
modifications: mutant HPPD polypeptide
B7: SEQ ID NO:52 (protein)
chain: B1 chain with K213R, P215A, K315R, D336H
modifications: mutant HPPD polypeptide
B8: SEQ ID NO:53 (protein)
chain: B1 chain with K213R, M264L, K315T, D336H, S344Q, I345M
modifications: mutant HPPD polypeptide
B9: SEQ ID NO:54 (protein)
chain: B1 chain with K213R, M264L, D336H, S344Q, I345M
modifications: mutant HPPD polypeptide
B10: SEQ ID NO:55 (protein)
chain: B1 chain with K213R, M264L, D336H, I345M
modifications: mutant HPPD polypeptide
B11: SEQ ID NO:56 (protein)
chain: B1 chain with K213R, M264L, K315Q, D336H, S344Q, I345M
modifications: mutant HPPD polypeptide
B12: SEQ ID NO:58 (protein)
chain: B1 chain with M264L, K315Q, D336H, S344Q, I345M
modifications: mutant HPPD polypeptide
B13: SEQ ID NO:59 (protein)
chain: B1 chain with K213R, M264L, S344Q, I345M
modifications: mutant HPPD polypeptide
B14: SEQ ID NO:60 (protein)
chain: B1 chain with M264L, S344Q, I345M
modifications: mutant HPPD polypeptide
B15: SEQ ID NO:63 (protein)
chain: B1 chain with P215A, M264L, D336H, S344Q, I345M
modifications: mutant HPPD polypeptide
B16: SEQ ID NO:64 (protein)
chain: B1 chain with M264L, K315Q, D336H, I345M
modifications: mutant HPPD polypeptide
B17: SEQ ID NO:65 (protein)
chain: B1 chain with K213R, M264L, S344Q
modifications: mutant HPPD polypeptide
B18: SEQ ID NO:66 (protein)
chain: B1 chain with K213R, M264L, K315Q, S344Q
modifications: mutant HPPD polypeptide
B19: SEQ ID NO:67 (protein)
chain: B1 chain with K213R, P215A, M264L, K315Q, I345V
modifications: mutant HPPD polypeptide
B20: SEQ ID NO:68 (protein)
chain: B1 chain with P215A, M264L, K315Q, S344Q
modifications: mutant HPPD polypeptide
B21: SEQ ID NO:69 (protein)
chain: B1 chain with K315Q
modifications: mutant HPPD polypeptide

system: Pseudomonas fluorescens HPPD polypeptide (wild-type and mutants); assay: Coupled HPPD activity assay: turnover and residual turnover in crude HPPD polypeptide extracts with and without Cmpd. 1; assay type: biochemical; settings: 100 μM Cmpd. 1, normalised to turnover without inhibitor
Method: For the generation of crude HPPD polypeptide extract in micro titer plates (MTP) for the determination of residual activity in inhibition assays, cells were grown in 40 or 150 μl LB medium containing 1% Glucose (Merck, Darmstadt, Germany) and 100 μg/ml ampicillin in a standard 96 well plate (Thermo Fisher Scientific, Waltham, USA) incubated for about 18 h in a humidity incubator at 37° C. 30 μl of this starter culture were added to 600 μl LB medium containing 100 μg/ml ampicillin and 150 mM Hepes (Merck, Darmstadt, Germany) as inoculum for the expression culture in 96 well plates (2 ml deep wells; HJ Bioanalytik, Erkelenz, Germany). The plates were sealed by an aluminium foil, and cells were incubated for 5 h at 37° C. on a plate shaker at 750 rpm. The expression was induced by addition of IPTG in a final concentration of 1 mM followed by further sealed incubation for about 18 h at 30° C. on a plate shaker at 750 rpm.
Cells were harvested by centrifugation at 4° C., 2500 g for 15 min discarding the supernatant. Cell pellets were stored at −80° C. and lysed in 250 μl 1× BugBuster® (Merck, Darmstadt, Germany) in 140 mM Tris (pH 7.8), with 1:25000 diluted BNase® (Qiagen, Hilden, Germany) by incubation of the resuspended cells for 30 min at 4° C. and 1000 rpm. Lysates were clarified by centrifugation for 15 min at 4° C., 2500 g, and 150 μl supernatant were transferred in standard 96 well plate (Thermo Fisher Scientific, Waltham, USA) for subsequent testing in quadruplets.
The activity of HPPD polypeptides was determined in absence or presence of HPPD inhibitors using the coupled HPPD activity assay (FIG. 1).
For the determination of the residual activity, the apparent kinetic constant (kapp) of the determined substrate conversion was measured as kinetic changes in absorbance (OD) at 320 nm in a coupled assay, in that homogentisate (HGA) formed by HPPD from HPP is directly converted into the well absorbing molecule maleylacetoacetate (MAA) by a second enzyme homogentisate dioxygenase (HGD), applied in excess uniformly in all assays (see FIG. 1). The measurements were performed in 384 micro titer plates (Greiner Bio-One GmbH, Frickenhausen, Germany) by plate readers (Tecan infinite M1000 or M1000PRO, Tecan, Männedorf, Switzerland). The kcat/kM ratio of an enzymatic activity is proportional to the apparent kinetic constant kapp and is proportional to kcat/kM*[E] ([E]=enzyme concentration). […] As both kapp measurements in the presence and absence of inhibitor were performed by use of the identical enzyme sample, crude or purified, and thereby at the same enzyme concentration, the enzyme concentration eliminates from the calculation of residual activity and the ratio of both kapp directly indicates the change of kM due to the inhibition.
The assay solution used for determination of residual activities in raw HPPD polypeptide samples was composed by 200 mM sodium phosphate (Merck, Darmstadt, Germany, pH 7.0), 5 mM MgCl2 (Merck, Darmstadt, Germany), 20 mM ascorbate (Sigma-Aldrich, St. Louis, USA), 1 mM DTT (Sigma-Aldrich, St. Louis, USA), 0.1% Pluronic F-68 (Sigma-Aldrich, St. Louis, USA), 40 μM FeSO4 (Sigma-Aldrich, St. […] Louis, USA) and equilibrated for 20 min on ice.

Row | Molecule | Residual turnover [%]
1 | B1 | 36
2 | B2 | 68
3 | B3 | 38
4 | B4 | 52
5 | B5 | 54
6 | B6 | 61
7 | B7 | 61
8 | B8 | 73
9 | B9 | 82
10 | B10 | 58
11 | B11 | 75
12 | B12 | 81
13 | B13 | 59
14 | B14 | 56
15 | B15 | 67
16 | B16 | 61
17 | B17 | 60
18 | B18 | 65
19 | B19 | 90
20 | B20 | 74
21 | B21 | 40

same assay, conditions: absence of Cmpd. 1; changes in absorbance (OD) at 320 nm in the coupled assay, 30 min

Row | Molecule | Turnover
22 | B1 | 0.162
23 | B2 | 0.09
24 | B3 | 0.161
25 | B4 | 0.318
26 | B5 | 0.272
27 | B6 | 0.173
28 | B7 | 0.173
29 | B8 | 0.339
30 | B9 | 0.274
31 | B10 | 0.303
32 | B11 | 0.339
33 | B12 | 0.339
34 | B13 | 0.215
35 | B14 | 0.252
36 | B15 | 0.209
37 | B16 | 0.295
38 | B17 | 0.204
39 | B18 | 0.187
40 | B19 | 0.141
41 | B20 | 0.182
42 | B21 | 0.173

same assay, conditions: presence of 100 μM Cmpd. 1; changes in absorbance (OD) at 320 nm in the coupled assay, 30 min

Row | Molecule | Residual turnover
43 | B1 | 0.059
44 | B2 | 0.061
45 | B3 | 0.061
46 | B4 | 0.165
47 | B5 | 0.148
48 | B6 | 0.106
49 | B7 | 0.105
50 | B8 | 0.246
51 | B9 | 0.224
52 | B10 | 0.177
53 | B11 | 0.253
54 | B12 | 0.276
55 | B13 | 0.126
56 | B14 | 0.14
57 | B15 | 0.139
58 | B16 | 0.181
59 | B17 | 0.123
60 | B18 | 0.122
61 | B19 | 0.127
62 | B20 | 0.134
63 | B21 | 0.069
